Measured values as given in US11278600B2, “Human alpha-galactosidase variants” (Codexis, Inc., priority 2014, dated 2022).

Tests used:
Type in all cases: biochemical
[1] = HTP-analysis of supernatants pretreated with base (MUGal hydrolysis); conditions: activity of the variant/activity of Rd4BB (SEQ ID NO: 15); challenge at pH 9.65
Summary of the method: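 Fluorescence of released 4-MU (Ex 355 nm, Em 448 nm) after carbonate quench reports MUGal hydrolysis by GLA variants secreted from INVSc1 yeast. Before the acidic (pH 4.3-4.8) 30-180 min reaction at 37° C, supernatants had been pre-incubated at pH 7.0-9.7 for 1-18 h at 37° C.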

[2] = HTP-analysis of yeast culture supernatants, no challenge (MUGal hydrolysis); conditions: activity of the variant/activity of Rd4BB (SEQ ID NO: 15)
Summary of the method: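 GLA variants were expressed in INVSc1 yeast grown in SD-Ura broth with glucose at 30° C., and culture supernatants were collected after 66-84 h. Supernatant was mixed with McIlvaine buffer pH 4.8 and MUGal (2 mM stock) in 50 mM citrate, 200 mM KCl, pH 4.6, incubated at 37° C. for 30-180 minutes, then quenched with sodium carbonate.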

[3] = HTP-analysis of supernatants pretreated with acid (MUGal hydrolysis); conditions: activity of the variant/activity of Rd4BB (SEQ ID NO: 15); challenge at pH 3.7
Summary of the method: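 GLA variants were secreted from INVSc1 yeast grown 66-84 h at 30° C. in SD-Ura with 2% glucose; supernatants were mixed with McIlvaine buffer pH 3.3-4.3 and held at 37° C. for 1-3 h. Residual activity on MUGal at pH 4.8 was then measured by fluorescence.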

B1: 399 (protein)
chain: LDNGLARTPTMGWLHWERFMCNLDCQEEPDSCISEKLFMEMAERMVSEGWKDAGYEYLCIDDCWMAPQRDSEGRLQADPQRFPHGIRQLANYVHSKGLKLGIYADVGNKTCAGFPGSFGYYDIDAQTFADWGVDLLKFDGCYCDSLENLADGYKHMSLALNRTGKSIVYSCEWPLYMWPFQKPNYTEIRQYCNHWRNFADIDDSWKSIKSILDWTSRNQERIVDVAGPGGWNDPDMLVIGNFGLSWDQQVTQMALWAIMAAPLFMSNDLRHISPQAKALLQDKDVIAINQDPLGKQGYQLRKGDNFEVWERPLSGDAWAVAIINRQEIGGPRSYTIPVASLGKGVACNPACFITQLLPVKRQLGFYNWTSRLKSHINPTGTVLLQLENTMQMSLKDLL
modifications: Synthetic Polypeptide sequence of Variant No. 399 of mature Human GLA
With B1 the “Relative Activity of GLA Variants After Challenge at pH 9.65” value (shortened to “Relative Activity … at pH 9.65”) [1] was “+ (0.5 to 1.5 relative activity over Rd4BB (SEQ ID NO: 15))”, the “Relative Activity of GLA Variants After No Challenge (NC)” value [2] was “+ (0.5 to 1.5 relative activity over Rd4BB (SEQ ID NO: 15))” and the “Relative Activity of GLA Variants After Challenge at pH 3.7” value (“Relative Activity … at pH 3.7” for short) [3] was “+ (0.5 to 1.5 relative activity over Rd4BB (SEQ ID NO: 15))”.

B2: 401 (protein)
chain: LDNGLARTPTMGWLHWERFMCNLDCQEEPDSCISEKLFMEMAERMVSEGWKDAGYEYLCIDDCWMAPQRDSEGRLQADPQRFPHGIRQLANYVHSKGLKLGIYADVGNKTCAGFPGSFGYYDIDAQTFADWGVDLLKFDGCYCDSLENLADGYKHMSLALNRSGRSIVYSCEWPLYMWPFQKPNYTEIRQYCNHWRNFADIDDSWKSIKSILDWTSRNQERIVDVAGPGGWNDPDMLVIGNFGLSWDQQVTQMALWAIMAAPLFMSNDLRHISPQAKALLQDKDVIAINQDPLGKQGYQLRKGDNFEVWERPLSGDAWAVAIINRQEIGGPRSYTIPVASLGKGVACNPACFITQLLPVKRQLGFYNWTSRLKSHINPTGTVLLQLENTMQMSLKDLL
modifications: Synthetic Polypeptide sequence of Variant No. 401 of mature Human GLA
With B2 the “Relative Activity … at pH 9.65” value [1] was “− (<0.5 relative activity over Rd4BB (SEQ ID NO: 15))”, the “Relative Activity of GLA Variants After No Challenge (NC)” value [2] was “+ (0.5 to 1.5 relative activity over Rd4BB (SEQ ID NO: 15))” and the “Relative Activity … at pH 3.7” value [3] was “+ (0.5 to 1.5 relative activity over Rd4BB (SEQ ID NO: 15))”.

B3: 406 (protein)
chain: LDNGLARTPTMGWLHWERFMCNLDCQEEPDSCISEKLFMEMAERMVSEGWKDAGYEYLCIDDCWMAPQRDSEGRLQADPQRFPHGIRQLANYVHSKGLKLGIYADVGNKTCAGFPGSFGYYDIDAQTFADWGVDLLKFDGCYCDSLENLADGYKHMSLALNKTGRSIVYSCEWPLYMWPFQKPNYTEIRQYCNHWRNFADIDDSWKSIKSILDWTSRNQERIVDVAGPGGWNDPDMLVIGNFGLSWDQQVTQMALWAIMAAPLFMSNDLRHISPQAKALLQDKDVIAINQDPLGKQGYQLRKGDNFEVWERPLSGDAWAVAIINRQEIGGPRSYTIPVASLGKGVACNPACFITQLLPVKRQLGFYNWTSRLKSHINPTGTVLLQLENTMQMSLKDLL
modifications: Synthetic Polypeptide sequence of Variant No. 406 of mature Human GLA
With B3 the “Relative Activity … at pH 9.65” value [1] was “+ (0.5 to 1.5 relative activity over Rd4BB (SEQ ID NO: 15))”, the “Relative Activity of GLA Variants After No Challenge (NC)” value [2] was “+ (0.5 to 1.5 relative activity over Rd4BB (SEQ ID NO: 15))” and the “Relative Activity … at pH 3.7” value [3] was “+ (0.5 to 1.5 relative activity over Rd4BB (SEQ ID NO: 15))”.

B4: 402 (protein)
chain: LDNGLARTPTMGWLHWERFMCNLDCQEEPDSCISEKLFMEMAERMVSEGWKDAGYEYLCIDDCWMAPQRDSEGRLQADPQRFPHGIRQLANYVHSKGLKLGIYADVGNKTCAGFPGSFGYYDIDAQTFADWGVDLLKFDGCYCDSLENLADGYKHMSLALNRTGRPIVYSCEWPLYMWPFQKPNYTEIRQYCNHWRNFADIDDSWASIKSILDWTSRNQERIVDVAGPGGWNDPDMLVIGNFGLSWDQQVTQMALWAIMAAPLFMSNDLRHISPQAKALLQDKDVIAINQDPLGKQGYQLRKGDNFEVWERPLSGDAWAVAIINRQEIGGPRSYTIPVASLGKGVACNPACFITQLLPVKRQLGFYNWTSRLKSHINPTGTVLLQLENTMQMSLKDLL
modifications: Synthetic Polypeptide sequence of Variant No. 402
In the case of B4, the “Relative Activity … at pH 9.65” value [1] is reported as “+ (0.5 to 1.5 relative activity over Rd4BB (SEQ ID NO: 15))”, the “Relative Activity of GLA Variants After No Challenge (NC)” value [2] is reported as “+ (0.5 to 1.5 relative activity over Rd4BB (SEQ ID NO: 15))” and the “Relative Activity … at pH 3.7” value [3] is reported as “++ (>1.5 to 2.5 relative activity over Rd4BB (SEQ ID NO: 15))”.

B5: 400 (protein)
chain: LDNGLARTPTMGWLHWERFMCNLDCQEEPDSCISEKLFMEMAERMVSEGWKDAGYEYLCIDDCWMAPQRDSEGRLQADPQRFPHGIRQLANYVHSKGLKLGIYADVGNKTCAGFPGSFGYYDIDAQTFADWGVDLLKFDGCYCDSLENLADGYKHMSCALNRTGRSIVYSCEWPLYMWPFQKPNYTEIRQYCNHWRNFADIDDSWKSIKSILDWTSRNQERIVDVAGPGGWNDPDMLVIGNFGLSWDQQVTQMALWAIMAAPLFMSNDLRHISPQAKALLQDKDVIAINQDPLGKQGYQLRKGDNFEVWERPLSGDAWAVAIINRQEIGGPRSYTIPVASLGKGVACNPACFITQLLPVKRQLGFYNWTSRLKSHINPTGTVLLQLENTMQMSLKDLL
modifications: Synthetic Polypeptide sequence of Variant No. 400 of mature Human GLA
For B5, the “Relative Activity … at pH 9.65” value [1] was “− (<0.5 relative activity over Rd4BB (SEQ ID NO: 15))”, the “Relative Activity of GLA Variants After No Challenge (NC)” value [2] was “+ (0.5 to 1.5 relative activity over Rd4BB (SEQ ID NO: 15))” and the “Relative Activity … at pH 3.7” value [3] was “+ (0.5 to 1.5 relative activity over Rd4BB (SEQ ID NO: 15))”.

B6: 404 (protein)
chain: LDNGLARTPTMGWLHWERFMCNLDCQEEPDSCISEKLFMEMAERMVSEGWKDAGYEYLCIDDCWMAPQRDSEGRLQADPQRFPHGIRQLANYVHSKGLKLGIYADVGNKTCAGFPGSFGYYDIDAQTFADWGVDLLKFDGCYCDSLENLADGYKHMSLALNRTGRFIVYSCEWPLYMWPFQKPNYTEIRQYCNHWRNFADIDDSWKSIKSILDWTSRNQERIVDVAGPGGWNDPDMLVIGNFGLSWDQQVTQMALWAIMAAPLFMSNDLRHISPQAKALLQDKDVIAINQDPLGKQGYQLRKGDNFEVWERPLSGDAWAVAIINRQEIGGPRSYTIPVASLGKGVACNPACFITQLLPVKRQLGFYNWTSRLKSHINPTGTVLLQLENTMQMSLKDLL
modifications: Synthetic Polypeptide sequence of Variant No. 404 of mature Human GLA
With B6 the “Relative Activity … at pH 9.65” value [1] was “− (<0.5 relative activity over Rd4BB (SEQ ID NO: 15))”, the “Relative Activity of GLA Variants After No Challenge (NC)” value [2] was “+ (0.5 to 1.5 relative activity over Rd4BB (SEQ ID NO: 15))” and the “Relative Activity … at pH 3.7” value [3] was “+ (0.5 to 1.5 relative activity over Rd4BB (SEQ ID NO: 15))”.

B7: 403 (protein)
chain: LDNGLARTPTMGWLHWERFMCNLDCQEEPDSCISEKLFMEMAERMVSEGWKDAGYEYLCIDDCWMAPQRDSEGRLQADPQRFPHGIRQLANYVHSKGLKLGIYADVGNKTCAGFPGSFGYYDIDAQTFADWGVDLLKFDGCYCDSLENLADGYKHMSLALNRTGRGIVYSCEWPLYMWPFQKPNYTEIRQYCNHWRNFADIDDSWKSIKSILDWTSRNQERIVDVAGPGGWNDPDMLVIGNFGLSWDQQVTQMALWAIMAAPLFMSNDLRHISPQAKALLQDKDVIAINQDPLGKQGYQLRKGDNFEVWERPLSGDAWAVAIINRQEIGGPRSYTIPVASLGKGVACNPACFITQLLPVKRQLGFYNWTSRLKSHINPTGTVLLQLENTMQMSLKDLL
modifications: Synthetic Polypeptide sequence of Variant No. 403 of mature Human GLA
With B7 the “Relative Activity … at pH 9.65” value [1] was “+ (0.5 to 1.5 relative activity over Rd4BB (SEQ ID NO: 15))”, the “Relative Activity of GLA Variants After No Challenge (NC)” value [2] was “+ (0.5 to 1.5 relative activity over Rd4BB (SEQ ID NO: 15))” and the “Relative Activity … at pH 3.7” value [3] was “+ (0.5 to 1.5 relative activity over Rd4BB (SEQ ID NO: 15))”.

B8: 405 (protein)
chain: LDNGLARTPTMGWLHWERFMCNLDCQEEPDSCISEKLFMEMAERMVSEGWKDAGYEYLCIDDCWMAPQRDSEGRLQADPQRFPHGIRQLANYVHSKGLKLGIYADVGNKTCAGFPGSFGYYDIDAQTFADWGVDLLKFDGCYCDSLENLADGYKHMSEALNRTGRSIVYSCEWPLYMWPFQKPNYTEIRQYCNHWRNFADIDDSWKSIKSILDWTSRNQERIVDVAGPGGWNDPDMLVIGNFGLSWDQQVTQMALWAIMAAPLFMSNDLRHISPQAKALLQDKDVIAINQDPLGKQGYQLRKGDNFEVWERPLSGDAWAVAIINRQEIGGPRSYTIPVASLGKGVACNPACFITQLLPVKRQLGFYNWTSRLKSHINPTGTVLLQLENTMQMSLKDLL
modifications: Synthetic Polypeptide sequence of Variant No. 405 of mature Human GLA
For B8, the “Relative Activity … at pH 9.65” value [1] was “+ (0.5 to 1.5 relative activity over Rd4BB (SEQ ID NO: 15))”, the “Relative Activity of GLA Variants After No Challenge (NC)” value [2] was “+ (0.5 to 1.5 relative activity over Rd4BB (SEQ ID NO: 15))” and the “Relative Activity … at pH 3.7” value [3] was “++ (>1.5 to 2.5 relative activity over Rd4BB (SEQ ID NO: 15))”.
